How the values were obtained:
[1] = target: Aurora A (UniProt O14965); assay: Myc co-IP, Aurora A immunoblot; conditions: reference: wild type Bora-Myc; sites S59
[2] = target: Aurora A (UniProt O14965); assay: GFP co-IP, Aurora A immunoblot; conditions: reference: wild type Bora-GFP; sites S59
[3] = target: Aurora A (UniProt O14965); assay: co-IP of Bora-GFP, Aurora A immunoblot; conditions: reference: wild type Bora-GFP; sites S59
[4] = target: Aurora A (UniProt O14965); assay: GST-Aurora A pull-down of MBP-Bora; conditions: reference: unphosphorylated MBP-Bora; sites S59

binding against the reference [1]	binding against the reference [2]	binding against the reference [3]	binding against the reference [4]	Substance
weaker	weaker	weaker		Bora (from UniProt Q6PGQ7) S59A
			stronger	Bora (from UniProt Q6PGQ7) MBP-Bora-S59ph (genetic code expansion)
